This data set concerns the target trastuzumab (humanized IgG1 monoclonal antibody) (UniProt P01857-1;P01834 P01857-1:1-330,P01834:1-107). Put plainly: covalent conjugation at heavy chain only, at least one per antibody; HEPES pH 8.4, Mg, K, 37 C, 1 day. Particulars: chain copies: 2. The source says:
Whether the aptamer brings oxanine close to the amine group of the target protein, enabling proximity-enhanced covalent bond formation, was monitored with SDS-PAGE (protein bands) and electrophoresis (DNA bands).

trastuzumab (humanized IgG1 monoclonal antibody), sequence (P01857 other isoform, or with tags, fused parts or gaps, chain 1 of 2, other chains not shown): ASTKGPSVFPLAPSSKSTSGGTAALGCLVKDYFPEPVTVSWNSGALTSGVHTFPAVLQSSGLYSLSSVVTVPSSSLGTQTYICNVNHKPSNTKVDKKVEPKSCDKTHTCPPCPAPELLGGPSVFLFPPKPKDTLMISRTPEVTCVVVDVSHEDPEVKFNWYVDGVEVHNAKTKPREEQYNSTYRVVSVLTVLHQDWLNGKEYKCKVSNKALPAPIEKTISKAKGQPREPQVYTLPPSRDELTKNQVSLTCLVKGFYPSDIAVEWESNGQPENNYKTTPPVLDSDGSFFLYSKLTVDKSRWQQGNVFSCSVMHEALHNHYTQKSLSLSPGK

B1: Fc RNA aptamer Apt8-2-oxanine (mixed)
DNA: GGAGGTGCTCCGAAAGGAACTCC
modifications: printed ggAGG[2'-F-rU]Gc[2'-F-rU]ccgaaaGgaa[2'-F-rC][2'-F-rU]cc (lowercase DNA, uppercase RNA); about 10 oxanine nucleotides added at 3' end
For B1, the binding result is listed as “binds”.

The values above are taken from patent US20240424107, “PREPARATION OF SITE-SPECIFIC POLYPEPTIDE CONJUGATES” (POSTECH RESEARCH AND BUSINESS DEVELOPMENT FOUNDATION, published 2024).
